The record followed here is patent US8992932B2 (Seattle Genetics, Inc., dated 2015).

The chains are these.
T1: C4.4a on A549 cells transfected with the sequence for the complete C4.4a receptor (Homo sapiens)
T1 chain: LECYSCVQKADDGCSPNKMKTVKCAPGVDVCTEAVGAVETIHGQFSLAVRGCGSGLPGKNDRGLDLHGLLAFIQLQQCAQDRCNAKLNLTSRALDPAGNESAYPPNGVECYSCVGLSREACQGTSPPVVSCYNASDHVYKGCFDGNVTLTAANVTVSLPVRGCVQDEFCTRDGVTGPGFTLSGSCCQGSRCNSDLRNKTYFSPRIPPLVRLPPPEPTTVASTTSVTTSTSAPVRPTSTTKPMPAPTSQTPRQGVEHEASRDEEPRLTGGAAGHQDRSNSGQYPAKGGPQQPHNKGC

B1: ADC of Example 55 (antibody, V domains shown)
VH: EVQLLESGGGLVQPGGSLRLSCAASGFTFSDYQMTWIRQTPGKGLEWVSGISWNGGSTHYADSVKGRFTISRDNSKNTLYLQMNSLRAEDTAVYYCAKGDYLVYSSYYFKSWGQGTLVTVSS
VL: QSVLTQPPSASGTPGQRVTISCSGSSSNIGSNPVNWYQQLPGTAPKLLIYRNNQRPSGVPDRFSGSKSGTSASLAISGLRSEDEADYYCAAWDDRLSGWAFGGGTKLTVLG
modifications: toxophore-linker on Cys (via S); toxophore-linker on Cys (via S)
B2: ADC of Example 49 (antibody, V domains shown)
VH: EVQLLESGGGLVQPGGSLRLSCAASGFTFSSAWMSWVRQAPGKGLEWVSYISSSGSTIYYADSVKGRFTISRDNSKNTLYLQMNSLRAEDTAVYYCAREGLWAFDYWGQGTLVTVSS
VL: QSVLTQPPSVSGAPGQRVTISCTGSSSNIGAGYVVHWYQQLPGTAPKLLIYDNNKRPSGVPDRFSGSKSGTSASLAISGLRSEDEADYYCAAYDDSLSGPVFGGGTKLTVLG
modifications: toxophore-linker on Cys (via S); toxophore-linker on Cys (via S)
B3: ADC of Example 53 (antibody, V domains shown)
VH: B2 VH
VL: B2 VL
modifications: toxophore-linker on Cys (via S); toxophore-linker on Cys (via S)
B4: ADC of Example 52 (antibody, V domains shown)
VH: B2 VH
VL: B2 VL
modifications: toxophore-linker on Cys (via S); toxophore-linker on Cys (via S)

The assay has as its target T1, C4.4a on A549 cells transfected with …. The experiment in a line: cell-based or functional assay.
For the molecule B1, the “IC50 [nM] A549: C4.4a (cell viability)” value came out at 0.053 nM. For B2, the “IC50 [nM] A549: C4.4a (cell viability)” value was found to be 0.076 nM. Regarding B3, the “IC50 [nM] A549: C4.4a (cell viability)” value was found to be 0.046 nM. The result for B4 reads 0.04 nM.
